In patent US20260242419A1, “A CYCLIC PEPTIDE FOR TRAPPING INTERLEUKIN-1 BETA” (Merck Sharp & Dohme LLC, priority 2023, published 2026):
Starred links: 1 amine or outer side, 2 acyl side, 3 side chain; linkers in the order of their positions; H or OH if unused. Non-standard residues stand in square brackets, D forms with d. TyrEtNAc = (2S)-3-[4-(2-acetamidoethoxy)phenyl]-2-amino-propanoic acid, CC(=O)NCCOc1ccc(C[C@H](N[*:1])C(=O)[*:2])cc1; dPro(4R-(4-pyridylmethyl)) = O=C(O)[C@H]1C[C@@H](Cc2ccncc2)CN1; Trp(βS-Me,4-F) = C[C@@H](c1c[nH]c2cccc(F)c12)[C@H](N)C(=O)O; Bip(4'-COOH) = N[C@@H](Cc1ccc(-c2ccc(C(=O)O)cc2)cc1)C(=O)O; Ala(1-bicyclo(1.1.1)pentyl) = N[C@@H](CC12CC(C1)C2)C(=O)O; dPro(4R-Bzl(4-F)) = O=C(O)[C@H]1C[C@@H](Cc2ccc(F)cc2)CN1; Ala(pyrimidin-5-yl) = N[C@@H](Cc1cncnc1)C(=O)O; Phe(4-COOH) = N[C@@H](Cc1ccc(C(=O)O)cc1)C(=O)O; Pro(cis-4-F) = O=C(O)[C@@H]1C[C@H](F)CN1; 4Pal = N[C@@H](Cc1ccncc1)C(=O)O; Orn = NCCC[C@H](N)C(=O)O; Dab = NCC[C@H](N)C(=O)O; Dap = NC[C@H](N)C(=O)O; Aib = CC(C)(N)C(=O)O

B1: SEQ ID NO: 108 (peptide)
peptide: cyclo([Bip(4'-COOH)][4Pal][Phe(4-COOH)]G[Pro(cis-4-F)][Trp(βS-Me,4-F)][Aib]SW[Aib][Ala(pyrimidin-5-yl)]Q[Orn]G[dPro(4R-(4-pyridylmethyl))])
SMILES: C[C@@H](c1c[nH]c2cccc(F)c12)[C@@H]1NC(=O)[C@@H]2C[C@H](F)CN2C(=O)CNC(=O)[C@H](Cc2ccc(C(=O)O)cc2)NC(=O)[C@H](Cc2ccncc2)NC(=O)[C@H](Cc2ccc(-c3ccc(C(=O)O)cc3)cc2)NC(=O)[C@H]2C[C@@H](Cc3ccncc3)CN2C(=O)CNC(=O)[C@H](CCCN)NC(=O)[C@H](CCC(N)=O)NC(=O)[C@H](Cc2cncnc2)NC(=O)C(C)(C)NC(=O)[C@H](Cc2c[nH]c3ccccc23)NC(=O)[C@H](CO)NC(=O)C(C)(C)NC1=O
B2: SEQ ID NO: 110 (peptide)
peptide: cyclo([Bip(4'-COOH)][Ala(1-bicyclo(1.1.1)pentyl)][Phe(4-COOH)]G[Pro(cis-4-F)][Trp(βS-Me,4-F)][Aib]SW[Aib][Orn]Q[Dab]G[dPro(4R-Bzl(4-F))])
SMILES: C[C@@H](c1c[nH]c2cccc(F)c12)[C@@H]1NC(=O)[C@@H]2C[C@H](F)CN2C(=O)CNC(=O)[C@H](Cc2ccc(C(=O)O)cc2)NC(=O)[C@H](CC23CC(C2)C3)NC(=O)[C@H](Cc2ccc(-c3ccc(C(=O)O)cc3)cc2)NC(=O)[C@H]2C[C@@H](Cc3ccc(F)cc3)CN2C(=O)CNC(=O)[C@H](CCN)NC(=O)[C@H](CCC(N)=O)NC(=O)[C@H](CCCN)NC(=O)C(C)(C)NC(=O)[C@H](Cc2c[nH]c3ccccc23)NC(=O)[C@H](CO)NC(=O)C(C)(C)NC1=O
B3: SEQ ID NO: 11 (peptide)
peptide: cyclo([TyrEtNAc][4Pal][Phe(4-COOH)]G[Pro(cis-4-F)][Trp(βS-Me,4-F)][Aib]EW[Aib][Ala(pyrimidin-5-yl)]Q[Dap]G[dPro(4R-Bzl(4-F))])
SMILES: CC(=O)NCCOc1ccc(C[C@@H]2NC(=O)[C@H]3C[C@@H](Cc4ccc(F)cc4)CN3C(=O)CNC(=O)[C@H](CN)NC(=O)[C@H](CCC(N)=O)NC(=O)[C@H](Cc3cncnc3)NC(=O)C(C)(C)NC(=O)[C@H](Cc3c[nH]c4ccccc34)NC(=O)[C@H](CCC(=O)O)NC(=O)C(C)(C)NC(=O)[C@H]([C@@H](C)c3c[nH]c4cccc(F)c34)NC(=O)[C@@H]3C[C@H](F)CN3C(=O)CNC(=O)[C@H](Cc3ccc(C(=O)O)cc3)NC(=O)[C@H](Cc3ccncc3)NC2=O)cc1
B4: SEQ ID NO: 109 (peptide)
peptide: cyclo([Bip(4'-COOH)][Ala(1-bicyclo(1.1.1)pentyl)][Phe(4-COOH)]G[Pro(cis-4-F)][Trp(βS-Me,4-F)][Aib]SW[Aib][Ala(pyrimidin-5-yl)]Q[Orn]G[dPro(4R-(4-pyridylmethyl))])
SMILES: C[C@@H](c1c[nH]c2cccc(F)c12)[C@@H]1NC(=O)[C@@H]2C[C@H](F)CN2C(=O)CNC(=O)[C@H](Cc2ccc(C(=O)O)cc2)NC(=O)[C@H](CC23CC(C2)C3)NC(=O)[C@H](Cc2ccc(-c3ccc(C(=O)O)cc3)cc2)NC(=O)[C@H]2C[C@@H](Cc3ccncc3)CN2C(=O)CNC(=O)[C@H](CCCN)NC(=O)[C@H](CCC(N)=O)NC(=O)[C@H](Cc2cncnc2)NC(=O)C(C)(C)NC(=O)[C@H](Cc2c[nH]c3ccccc23)NC(=O)[C@H](CO)NC(=O)C(C)(C)NC1=O

These binders were tested against Recombinant human IL-1β (BioLegend 579404) (human, UniProt P01584 117-269) (assay: cell-based or functional assay).

| MRC5 IC50 | Binder |
| --- | --- |
| 0.024 nM | B1 |
| 0.038 nM | B2 |
| 0.045 nM | B3 |
| 0.036 nM | B4 |
